Results on two proteins are retold here after publication doi:10.1101/2025.02.05.636725, “DHRS7 Integrates NADP^+/NADPH Redox Sensing with Inflammatory Lipid Signalling via the Oxoeicosanoid Pathway” (bioRxiv, 2025).

Substrate in data set [1]: NC(=O)c1ccc[n+]([C@@H]2O[C@H](COP(=O)(O)OP(=O)(O)OC[C@H]3O[C@@H](n4cnc5c(N)ncnc54)[C@H](OP(=O)(O)O)[C@@H]3O)[C@@H](O)[C@H]2O)c1
The data set can be described thus: NADPH fluorescence, plate reader, Michaelis-Menten fit of initial velocities. Type of data set: cell-based, Danio rerio. The following applies: microsomes of overexpressing HEK293T DHRS7-KO cells, 5(S)-HETE in excess, pH 7.5, 37 °C, apparent (pseudo-first order), eGFP fusion, varied: cofactor.

Substrate in data set [2]: CCCCC/C=C\C/C=C\C/C=C\C=C\[C@@H](O)CCCC(=O)O
Nature of the data set: cells, lysate or membranes. The following applies: microsomes of overexpressing HEK293T DHRS7-KO cells, NADP+ in excess, pH 7.5, 37 °C, apparent (pseudo-first order), eGFP fusion.

Substrate in data set [3]: NC(=O)c1ccc[n+]([C@@H]2O[C@H](COP(=O)(O)OP(=O)(O)OC[C@H]3O[C@@H](n4cnc5c(N)ncnc54)[C@H](OP(=O)(O)O)[C@@H]3O)[C@@H](O)[C@H]2O)c1
The data set can be described thus: NADPH fluorescence, plate reader, Michaelis-Menten fit of initial velocities. It is filed as cell-based, Homo sapiens. The following applies: microsomes of overexpressing HEK293T DHRS7-KO cells, 5(S)-HETE in excess, pH 7.5, 37 °C, apparent (pseudo-first order), eGFP fusion, varied: cofactor.

B1: dr Dhrs7 (Danio rerio) (protein)
chain: MDICWLCVGLAGTAVYLLVQFIRFIFADADLTLLWAARFGKTPESTFRGKVVWITGASSGIGEELSLQLAAIGARLVLSARRENELERVKRLCLERSSLKAEDILVLPLDLMDRASHPEKTTAALEHFGEIDVLINNGGRSQRALCVDADVDVYQALMELNYLGTVSITKQVLPHMIQRGTGIIATVSSVAGFVGVPLATGYAASKHALQGFFNSLRTELSDCPNILISNICPGPVISSIVQNAFTEELGKPVATAGDQTHKMSTERCVHLTLVGLANRVKEMWIAEQPFLLFCYVWQYTPTLAWYLTNVLGKKRVQNFKAGVDADAAYFSKPKAKTS
notes: Dhrs7-eGFP fusion (pSBtet-eGFP vector, doxycycline-induced) in microsomes of human HEK293T DHRS7-knockout cells
As to B1, the Km was 0.63 (95% CI: [0.24, 1.03]) μM in data set [1] and 1.4 (95% CI: [1.1, 1.7]) μM in data set [2].

B2: hs DHRS7 (Homo sapiens) (protein)
chain: MNWELLLWLLVLCALLLLLVQLLRFLRADGDLTLLWAEWQGRRPEWELTDMVVWVTGASSGIGEELAYQLSKLGVSLVLSARRVHELERVKRRCLENGNLKEKDILVLPLDLTDTGSHEAATKAVLQEFGRIDILVNNGGMSQRSLCMDTSLDVYRKLIELNYLGTVSLTKCVLPHMIERKQGKIVTVNSILGIISVPLSIGYCASKHALRGFFNGLRTELATYPGIIVSNICPGPVQSNIVENSLAGEVTKTIGNNGDQSHKMTTSRCVRLMLISMANDLKEVWISEQPFLLVTYLWQYMPTWAWWITNKMGKKRIENFKSGVDADSSYFKIFKTKHD
notes: DHRS7-eGFP fusion (pSBtet-eGFP vector, doxycycline-induced) in microsomes of HEK293T DHRS7-knockout cells
Consider B2, for which the Km was 0.62 (95% CI: [0.39, 0.97]) μM in data set [3] and 0.78 (95% CI: [0.43, 1.13]) μM in data set [2].
